Experiment: soluble on expression in E. coli; label from the status in PepcDB or PDB records

Row | Sequence | soluble on expression in E. coli
1 | MSLGTLPPELQNTCVARGKLPLLLDLDNTLLHAQAASATGCDVRLQDWIDPYGEPELYRFELPCNRKTYYMKLRPHLRTFLKKLEPFYEMSVYTNATQEYADIVIAILDGNRQLFQDRIVARDSGFRGEASENKAVRRLYEGMDKRCIVAFDDRQNIWTDLPLTHVVKAQHYDFFDSHKTELNAYYPPLSNGIEGMTAPDVLGNRQNEDEGHHHHHH | not soluble
2 | MSASETRSKVLTDESTGSTAIEESPRNRQNEEPEQTSQTENLQTDPFNARISEIFEKQTVAFERQMMIKEEEFMSQMKEREEVKLKDLETKLENFEKWRKEIRLEGAKELNIKLHSEPEVSAELEHEGGLQEK | not soluble
3 | MKFKNILFDFDDTLVDFYDAEKKAFYNLAQKYNHQPTQQDFEHFKKVNQAHWEAFQQNKLTKDEVLSQRFINYFNDYQIHVNGKEADKCFRAELAMAPVKLFDHTLEVIQQLKLNHSLYIVTNGVTETQLRRIAQTQFNEIFQDVFISEKAGFQKPMTEFFDFVFEHIGENNRNQTLIVGDSLTSDILGGKNANISTCWFNIRQKENHTSIQPDYIINDLSEMIRIVE | not soluble
4 | MNLVETAQAIKTGKVSLGIELGSTRIKAVLITDDFNTIASGSYVWENQFVDGTWTYALEDVWTGIQQSYTQLAADVRSKYHMSLKHINAIGISAMMHGYLAFDQQAKLLVPFRTWRNNITGQAADELTELFDFNIPQRWSIAHLYQAILNNEAHVKQVDFITTLAGYVTWKLSGEKVLGIGDASGVFPIDETTDTYNQTMLTKFSQLDKVKPYSWDIRHILPRVLPAGAIAGKLTAAGASLLDQSGTLDAGSVIAPPEGDAGTGMVGTNSVRKRTGNISVGTSAFSMNVLDKPLSKVYRDIDIVMTPDGSPVAMVHVNNCSSDINAWATIFHEFAARLGMELKPDRLYETLFLESTRADADAGGLANYSYQSGENITKIQAGRPLFVRTPNSKFSLPNFMLTQLYAAFAPLQLGMDILVNEEHVQTDVMIAQGGLFRTPVIGQQVLANALNIPITVMSTAGEGGPWGMAVLANFACRQTAMNLEDFLDQEVFKEPESMTLSPEPERVAGYREFIQRYQAGLPVEAAAGQAIKYLEHHHHHH | soluble
5 | MSGKNEADSKDTGWEQIKDKGKIVVATSGTLYPTSYHDTDSGSDKLTGYEVEVVREAAKRLGLKVEFKEMGIDGMLTAVNSGQVDAAANDIDVTKDREEKFAFSTPYKYSYGTAIVRKDDLSGIKTLKDLKGKKAAGAATTVYMEVARKYGAKEVIYDNATNEQYLKDVANGRTDVILNDYYLQTLALAAFPDLNITIHPDIKYMPNKQALVMKKSNAALQKKMNEALKEMSKDGSLTKLSKQFFNKADVSKKIDADVQDVDLLEHHHHHH | soluble
6 | MPDSMSEQLRRDMQCEGLLECFHGLKELDKECFRALVEAEEPLTVDELADAVDRERSTAYRAVQRLLQTGFIEKDQINYDQGGYYHVYSPTDPSQIADEMQRMLNDWYAKMGQLIQEFENKYEQSESTAPTVES | soluble
7 | MLLNMMCGRQLSAISLCLAVTFAPLFNAQADEPEVIPGDSPVAVSEQGEALPQAQATAIMAGIQPLPEGAAEKARTQIESQLPAGYKPVYLNQLQLLYAARDMQPMWENRDAVKAFQQQLAEVAIAGFQPQFNKWVELLTDPGVNGMARDVVLSDAMMGYLHFIANIPVKGTRWLYSSKPYALATPPLSVINQWQLALDKGQLPTFVAGLAPQHPQYAAMHESLLALLCDTKPWPQLTGKATLRPGQWSNDVPALREILQRTGMLDGGPKITLPGDDTPTDAVVSPSAVTVETAETKPMDKQTTSRSKPAPAVRAAYDNELVEAVKRFQAWQGLGADGAIGPATRDWLNVTPAQRAGVLALNIQRLRLLPTELSTGIMVNIPAYSLVYYQNGNQVLDSRVIVGRPDRKTPMMSSALNNVVVNPPWNVPPTLARKDILPKVRNDPGYLESHGYTVMRGWNSREAIDPWQVDWSTITASNLPFRFQQAPGPRNSLGRYKFNMPSSEAIYLHDTPNHNLFKRDTRALSSGCVRVNKASDLANMLLQDAGWNDKRISDALKQGDTRYVNIRQSIPVNLYYLTAFVGADGRTQYRTDIYNYDLPARSSSQIVSKAEQLIR | soluble
8 | GYQPEKHAVVKSDRGDGRLLSTYAIVHEMLKDTHPQYAYRSGMSAQEFTQWQDGVRAAMVEIMKFPEIKRQPSPVCVKTEKKEGYILEKWEFYPFPKSVSTFLVLKPEHLKGAVPGVLCIPGSGRTKEGLVGEPGICDKLTEDYNNPKVSMALNMVKEGYVAVAVDNAAAGEASDLECYDKGWNYDYDVVSRFLLELGWSWLGYTSYLDMQVLNWMKAQSYIRKDRIVISGFSLGTEPMMVLGVLDKDIYAFVYNDFLCQTQERAVVMTKPDKENRRPFPNSIRHLIPGYWRYFNFPDVVASLAPRPIIFTEGGLDRDFRLVQSAYAASGKPENAEFHHYPKFADKAVRKDVEHLDEGLDSKTYFEAVNVDPPSHYFKNELVIPWLRKVLK | soluble
9 | SGTQALLVEERARLERLLGARLEAAADQALARLVEANPQPVHLICDLTHRLLACSPARAAQFGVPLGELLDRSLWPYCSEEILRQEATLEELGWRELLAPPALEFASGANASAIVPIRRSRCRWTRMTLSDGRAVRLVETL | not soluble
10 | MHHHHHHMKHNQLPLVIEFTEQTAPKIFGGEIKTHILLFLPKSVSDYDGKLSNFKTAAESFKGKILFAFIDSDHTDNQRILEFFGLKKEECPAVRLITLEEEMTKYKPESEELTAERITEFCHRFLEGKIKPHLMSQELPEDWDKQP | soluble
11 | DDSCQIGTSFTGLDMTKYVGTWYELFRTPNSDEEDFTNCEYDKYTLDENGVIQVTSVAYTNSIRGFITSTGTVPSWTEDTFDIAYGDDETWSSTYFMVGTDYQTYSIVAGCLDNDYSRHLYWIASHETSFDDATKAKVNEVLAPYNLSLDDMEPVDQSYCVQY | soluble
12 | MGSDKIHHHHHHMVILLNPNILESSFIPERLRARDSEISKIMEVVIKPALNNITTNLIIYGDSGTGKTVTMRFLAREVRNPKIFYINAISYRSVKNVLVELLSHEGVIISERASYANIYTRLEKAIEKYDKTVILVIDEAANILRTDEEGLYYLFRSKDSFDVNISAIFIAMDDPALLLNQRIKRSYGLFNELKFKRYSKDEILEIVRDRARMSLNTTSYDDTIIDYIAEISSEFGSARVAIDILAKAAHIAEYRRSENISYDDVRAAKSMISPYVTESKLASLDKYELAALLAICGCLSHSVSTDIACVSEQLKILREQYSLDPEMDIYEILRKLEGLGIINSYVESSGKSSGVRKKISIHDVPVSVLAEKIGNLLNGMA | not soluble
13 | MFFIMNYHIDWLTIEQDFGFEIPESILAAIFDFGMVGIHLDTGEMQEGIKTGKYRHKGSFCDEVSIKVSGSVIKMEGNPSRWGKVENVLGFTDVDSCVACFNNILFSLNLPLFTRCTEVFYLQGKEGEKVKKFSNGAIIKRLDITTNKSVGKGNERTFLKALSQMRYRNSVGRLHTNHCTVDWLSEKGNANLIYPSCYIKHEEMKLHSYDKIKNKFGQQAKEFQYYQKVFDYCLENGVVRFEQKLKSRYLQRENLCYWGLSDFSKLNEIQDGFINMYKKLSVSEVKLETIAQQLVSQGVVDTLRKANTTAYYAMRWSSGEDLSLLPIATFKRHRAILRKIGIDIANPCDIEKFQAVRVISCEQIFVKPFKAPDFYQYPSNMPQLRLVALEHHHHHH | not soluble
14 | MFALVLFVCYLDGGCEDIVVDIYDTEQHCLYSMDDQRIRHGGCFPVEDFIDGFWRPAQQYSDFLEHHHHHH | not soluble
15 | MGHHHHHHSHMPPAAAGPLAGQPRKSSSSRRNAWGNLSYADLITKAIESSAEKRLTLSQIYEWMVKSVPYFKDKGDSNSSAGWKNSIRHNLSLHSKFIRVQNEGTGKSSWWMLNPEGGKSGKSPRRRAASMDNNSKFAKSRSRAAKKKA | soluble
16 | MKEIILLVFLSRKEQTNRSANIFSSVLKGFEAQTIVYSLSYQKFYSNRKNKHKDETILVTAIYRCRRNPHGMQLKQCSPSVGSGAKTRTSGRLRP | not soluble
17 | MTHLFALSELPLDEIHRLLDEAEAFRSGRIWRPAAPMYVANLFFEPSTRTKCSFEMAERKLGLHVIPFDPERSSVQKGETLYDTVRTLEAIGVDAVVIRHHEDAYFEALRHAVGIPIINAGDGCGHHPTQSLLDLLTIRQEFGAFTGLTVAIIGDIRHSRVARSNAEVLTRLGANVLFSGPAEWKDETNPYGTYVEVDEAIARADVVMLLRIQHERHAETMGLTKEEYHARYGLTLERARRMKSGAIILHPAPVNRGVEIASELVEAKASRIFKQMENGVYVRMAVLKRAMEGRMEHGRMAEKWHVVQ | soluble
18 | MQAYFDQLDRVRYEGPQSTNPLAFRHYNPDELVLGKRMEDHLRFAACYWHTFCWNGADMFGVGAFNRPWQQPGEALELAKRKADVAFEFFHKLNVPFYCFHDVDVSPEGASLKEYKNNFAQMVDVLAAKQEQSGVKLLWGTANCFTNPRYGAGAATNPDPEVFSWAATQVVTAMNATHKLGGENYVLWGGREGYETLLNTDLRQEREQIGRFMQMVVEHKHKMGFQGTLLIEPKPQEPTKHQYDYDVATVYGFLKQFGLEKEIKVNIEANHATLAGHSFHHEIATAIALGIFGSVDANRGDAQLGWDTDQFPISVEENALVMYEILKAGGFTTGGLNFDAKVRRQSTDKYDLFYGHIGAMDTMALSLKIAARMVEDGELDKRVAKRYAGWNGELGQQILKGQLSLGELAQYAEQHNLAPVHQSGHQELLENLVNRYLFDK | not soluble
19 | MGHHHHHHGGHMSLHSGSVEHCIKGRSRRAAPRSEHTGRMADIARKASAHWEGDLKSGNGTITTESGVLSQAQYSFKTRFENGKGTNPEELLASAHAGCFTMQLSALLAEHGHEIKALDTDATCEMVKDGPGFKINHMHLRVRAQLTGSDQADFEAHVKDAAEKCPLSRIMQGNVEVTHEAILEGEGGS | soluble
20 | MEIRTFLERALKEDLGHGDLFERVLEKDFKATAFVRAKQEGVFSGEKYALELLEMTGIECVQTIKDKERFKPKDALMEIRGDFSMLLKVERTLLNLLQHSSGIATLTSRFVEALNSHKVRLLDTRKTRPLLRIFEKYSVLNGGASNHRLGLDDALMLKDTHLRHVKDLKSFLTHARKNLPFTAKIEIECESFEEAKNAMNAGADIVMCDNLSVLETKEIAAYRDAHYPFVLLEASGNISLESINAYAKSGVDAISVGALIHQATFIDMHMKMA | soluble
21 | MAHHHHHHMSLEPTLRDLLHSKLQWIFVGGKGGVGKTTTSCALATLFASTPVHDAVTNTTRPRRVLLISTDPAHNLSDAFSQKFGKTPVPVNGMEETLFAMEVDPTTFTHGGFGAMLGFPGHIATDADAPSPFAALGNILKEAAGTLPGIDELSVFAEILRGVQQLSYDVVIFDTAPTGHTLRLLALPHTLNSTMEKLLSVEGLNTLIQAASAVLSSTTNLGDMSSLMPAFKQWRENVQEVQRQFTDAEKTAFICVCIPEFLSVYETERLVQELMKYDISCDSIVVNQLVLKPSSEPDCRMCNARQKIQSKYLAQIDSLYEDFHVVKMPLLSDEVRGVPALQRFAQFLLEPYDADRHGYIDVCGAAS | soluble
22 | GMNSGKVAFIVTKNGKRICDVIDECSQRGSTILKAQGGYKQDDIQVVMCACNSKEMYQVRKSVKDTDPDSFIVVVESHEVHGEGFKMTNIGEAEN | not soluble
